Assay results reported in patent publication US20060270596A1 (CENTRE NATIONAL DE LA RECHERCHE SCIENTIFIQUE CNRS, published 2006).
Blank lines part the entries; values can stand above or below the binder they belong to.

Columns and labels:
[1] = target: T1, human THAP1 (THanatos-Associated-Protein-1), full length (human, UniProt Q9NVV9 1-213); assay: yeast two-hybrid
T1 construct: these tags are not written into the chain; also called hTHAP1; THAP1 wild type
T1 sequence: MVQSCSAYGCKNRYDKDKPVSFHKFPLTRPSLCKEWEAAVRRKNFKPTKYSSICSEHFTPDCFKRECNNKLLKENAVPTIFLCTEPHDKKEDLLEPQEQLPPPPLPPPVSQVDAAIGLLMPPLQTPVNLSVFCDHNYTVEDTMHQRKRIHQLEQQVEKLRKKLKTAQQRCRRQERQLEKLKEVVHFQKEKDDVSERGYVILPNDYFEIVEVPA

[2] = target: T2, human chemokine SLC/CCL21, mature form (amino acids 24-134) (human, UniProt O00585 24-134); assay: yeast two-hybrid
T2 construct: GenBank NP-002980; Used as Gal4 fusion in two-hybrid and as 35S-labelled in vitro translation product in pull-downs; also called SLC/6Ckine; SLC/CCL21 wild type
T2 sequence: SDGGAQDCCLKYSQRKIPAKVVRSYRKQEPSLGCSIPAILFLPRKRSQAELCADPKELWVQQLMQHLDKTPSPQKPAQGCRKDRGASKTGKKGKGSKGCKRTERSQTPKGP

[3] = target: T3, GST-THAP3 181-284 (chemokine-binding domain of THAP3) (human, UniProt Q8WTV1 136-239); assay: GST pull-down, 35S-labelled in vitro translated molecule
T3 construct: not shown: GST (glutathione S-transferase of pGEX2T) and its linker at the N end
T3 sequence: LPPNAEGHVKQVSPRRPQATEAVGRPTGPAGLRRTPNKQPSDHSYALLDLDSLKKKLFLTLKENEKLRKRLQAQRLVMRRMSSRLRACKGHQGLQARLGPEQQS

[4] = target: T4, GST-THAP1 fusion protein (THAP1 amino acids 1-213) (human, UniProt Q5RCE4 1-213 (Pongo abelii entry)); assay: GST pull-down: in vitro translated 35S-labelled protein on GST-THAP1 immobilised on glutathione sepharose, SDS-PAGE, fluorography
T4 construct: Expressed in E. coli, immobilized on glutathione sepharose; also called immobilized GST-THAP1; not shown: glutathione S-transferase encoded by vector pGEX-2T (Amersham Pharmacia Biotech)
T4 sequence: T1 sequence
Procedure: To confirm the results obtained in yeast, THAP1 mutants were also tested in in vitro GST pull down assays. Wild type THAP1 expressed as a GST-tagged fusion protein and immobilized on glutathione sepharose (as described in example 16), was incubated with radiolabeled in vitro translated THAP1 mutants. In vitro-translated THAP1 mutants were generated with the TNT-coupled reticulocyte lysate system (Promega, Madison, Wis., USA) using pGADT7-THAP1-C1, -C2, -C3, -N1, -N2 or -N3 vector as template. 25 μl of each ³⁵S-labelled THAP1 mutant was incubated with immobilized GST or GST-THAP1 wild-type protein overnight at 4° C., in the following binding buffer: 10 mM NaPO4 pH 8.0, 140 mM NaCl, 3 mM MgCl2, 1 mM dithiothreitol (DTT), 0.05% NP40, and 0.2 mM phenylmethyl sulphonyl fluoride (PMSF), 1 mM Na Vanadate, 50 mM β Glycerophosphate, 25 μg/ml chimotrypsine, 5 μg/ml aprotinin, 10 μg/ml Leupeptin. Beads were then washed 5 times in 1 ml binding buffer. Bound proteins were eluted with 2× Laemmli SDS-PAGE sample buffer, fractionated by 10% SDS-PAGE and visualized by fluorography using Amplify (Amersham Pharmacia Biotech). As expected, THAP1-C1, -C2, -C3, -and -N3 interacted with GST/THAP1 (FIG. 16B).

[5] = target: T5, GST (glutathione S-transferase) control protein (UniProt P08515 1-218 = GST); assay: GST pull-down, negative control: in vitro translated 35S-labelled chemokine or cytokine on GST alone immobilised on glutathione sepharose, SDS-PAGE, fluorography
T5 construct: Negative control in GST pull-down assays; also called GST beads; GST alone
T5 sequence (P08515 whole entry): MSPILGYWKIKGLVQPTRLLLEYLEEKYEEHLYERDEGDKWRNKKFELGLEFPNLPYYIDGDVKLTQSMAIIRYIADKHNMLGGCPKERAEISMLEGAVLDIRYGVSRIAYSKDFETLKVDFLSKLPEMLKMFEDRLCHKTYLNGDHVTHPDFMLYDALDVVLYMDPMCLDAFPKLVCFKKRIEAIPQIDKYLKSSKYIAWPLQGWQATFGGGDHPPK

[6] = target: T1, human THAP1 …; assay: yeast two-hybrid, THAP1 bait
chemokine CXCL8 = target: T6, chemokine CXCL8 (UniProt P10145 1-99, limits assumed); assay: GST pull-down: in vitro translated 35S-labelled protein on the GST fusion immobilised on glutathione sepharose, SDS-PAGE, fluorography
T6 construct: 35S-labelled in vitro translation product
T6 sequence (looked up): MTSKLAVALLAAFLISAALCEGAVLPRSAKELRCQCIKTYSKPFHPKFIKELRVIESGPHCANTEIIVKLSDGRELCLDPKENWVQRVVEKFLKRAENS

[7] = target: T1, human THAP1 …; assay: yeast two-hybrid, chemokine bait and THAP1 prey
[8] = target: T4, GST-THAP1 fusion protein (THAP1 amino …); assay: GST pull-down: in vitro translated 35S-labelled chemokine or cytokine on the GST fusion immobilised on glutathione sepharose, SDS-PAGE, fluorography

binding result [1]: no binding | binding result [2]: no binding | binding result [3]: no binding | binding result [4]: no binding
B1: THAP1-N1 deletion mutant (amino acids 1-90) (other)
chain: MVQSCSAYGCKNRYDKDKPVSFHKFPLTRPSLCKEWEAAVRRKNFKPTKYSSICSEHFTPDCFKRECNNKLLKENAVPTIFLCTEPHDKK
notes: Gal4 fusion, in vitro translation product or GFP fusion according to assay; also called zinc finger domain of THAP1

binding result [1]: binds
B2: THAP1-N3 deletion mutant (amino acids 1-192) (other)
chain: MVQSCSAYGCKNRYDKDKPVSFHKFPLTRPSLCKEWEAAVRRKNFKPTKYSSICSEHFTPDCFKRECNNKLLKENAVPTIFLCTEPHDKKEDLLEPQEQLPPPPLPPPVSQVDAAIGLLMPPLQTPVNLSVFCDHNYTVEDTMHQRKRIHQLEQQVEKLRKKLKTAQQRCRRQERQLEKLKEVVHFQKEKDD
notes: Gal4 fusion, in vitro translation product or GFP fusion according to assay

binding result [5]: no binding
B3: human chemokine MIG/CXCL9, mature form (amino acids 23-125) (ligand)
chain: TPVVRKGRCSCISTNQGTIHLQSLKDLKQFAPSPSCEKIEIIATLKNGVQTCLNPDSADVKELIKKWEKQVSQKKKQKNGKKHQKKKVLKVRKSQRSRQKKTT
notes: Residues are printed against GenBank NM-002416; Gal4 fusion or in vitro translation product

binding result [1]: binds
B4: THAP1-C1 deletion mutant (amino acids 90-213) (other)
chain: KEDLLEPQEQLPPPPLPPPVSQVDAAIGLLMPPLQTPVNLSVFCDHNYTVEDTMHQRKRIHQLEQQVEKLRKKLKTAQQRCRRQERQLEKLKEVVHFQKEKDDVSERGYVILPNDYFEIVEVPA
notes: Gal4 fusion, in vitro translation product or GFP fusion according to assay; also called THAP1-CL; THAP1ΔTHAP

binding result [6]: no binding
B5: THAP1ΔQRCRR mutant (deletion of residues 168-172) (other)
chain: MVQSCSAYGCKNRYDKDKPVSFHKFPLTRPSLCKEWEAAVRRKNFKPTKYSSICSEHFTPDCFKRECNNKLLKENAVPTIFLCTEPHDKKEDLLEPQEQLPPPPLPPPVSQVDAAIGLLMPPLQTPVNLSVFCDHNYTVEDTMHQRKRIHQLEQQVEKLRKKLKTAQQERQLEKLKEVVHFQKEKDDVSERGYVILPNDYFEIVEVPA

binding result (chemokine CXCL8): no binding
B6: GST-THAP2 133-228 (chemokine-binding domain of THAP2) (other)
chain: EAKKRIIKLEKEIASLRRKMKTCLQKERRATRRWIKATCLVKNLEANSVLPKGTSEHMLPTALSSLPLEDFKILEQDQQDKTLLSLNLKQTKSTFI
notes: Immobilized on glutathione sepharose; not shown: glutathione S-transferase encoded by vector pGEX2T (Amersham Biosciences)

binding result [1]: binds | binding result [2]: binds
B7: THAP1-C2 deletion mutant (amino acids 120-213) (other)
chain: MPPLQTPVNLSVFCDHNYTVEDTMHQRKRIHQLEQQVEKLRKKLKTAQQRCRRQERQLEKLKEVVHFQKEKDDVSERGYVILPNDYFEIVEVPA
notes: as for B2

binding result [1]: binds | binding result [2]: binds
B8: THAP1-C3 deletion mutant (amino acids 143-213) (other)
chain: MHQRKRIHQLEQQVEKLRKKLKTAQQRCRRQERQLEKLKEVVHFQKEKDDVSERGYVILPNDYFEIVEVPA
notes: as for B2

binding result [7]: binds | binding result [5]: no binding
B9: human chemokine ELC/CCL19, mature form (amino acids 22-98) (ligand)
chain: GTNDAEDCCLSVTQKPIPGYIVRNFHYLLIKDGCRVPAVVFTTLRGRQLCAPPDQPWVERIIQRLQRTSAKMKRRSS
notes: Residues are printed against GenBank NM-006274; Gal4-BD fusion or in vitro translation product

binding result [1]: no binding | binding result [3]: no binding | binding result [8]: no binding | binding result [5]: no binding
B10: human cytokine interferon gamma (amino acids 21-166) (ligand)
chain: CYCQDPYVKEAENLKKYFNAGHSDVADNGTLFLGILKNWKEESDRKIMQSQIVSFYFKLFKNFKDDQSIQKSVETIKEDMNVKFFNSNKKKRDDFEKLTNYSVTDLNVQRKAIHELIQVMAELSPAAKTGKRKRSQMLFQGRRASQ
notes: Residues are given against GenBank NM-000619; Negative control; also called IFNγ; IFN
